Results on 29 sequences are retold here after the supplement of paper PMC9170038.

The data set relates to MS2 coat protein. In words: apparent KD of MS2 coat protein; designed switch direction (-1 OFF switch, 1 ON switch): -1; higher = weaker reporter binding. The essentials: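 Designed RNA switches sharing common flanks were transcribed on Illumina chips by stalled E. coli RNA polymerase. They were titrated with SNAP-549-labelled MS2 coat protein, from 0.7 or 1.5 nM doubling to 3 µM, in Tris-HCl pH 7.5 buffer with KCl, MgCl2, BSA, DTT, tRNA and Tween-20. Titrations ran without input, with 200 uM small-molecule ligand, or with an oligonucleotide input. The apparent KD of each design is the median over its clusters, after curve-fitting of normalised cluster fluorescence.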

Where [1] appears, read: Eterna round: R95, input ligand: FMN 200 uM.
Setting [2] is: Eterna round: R95, input ligand: microRNA oligo, concentration not stated.
[3] abbreviates: Eterna round: R95, input ligand: none.
Where [4] appears, read: input ligand: microRNA oligo, concentration not stated.

Consider “UAGUAUCUUCAGGAUAUCAGUGGAAAACACGUAUGAGAAGGGAAGACAUGAGGAUCACCCAUGUAAAGGGUCCG [BotMod 11 - Jieux - Exclusion 6] (Eterna round: R97, puzzle: Exclusion 6)”, for which the “apparent KD of MS2 coat protein” value (input ligand: FMN 200 uM) came to 0.579 µM and the “apparent KD of MS2 coat protein” value (input ligand: none) worked out at 0.203 µM.

For “UAGUGGGUACGAAGGAGUUGUAUGAGCGGAGGCUCAGUGACAUGAGGAUCACCCAUGUAGCUUUUUGCUCGUCUUAA [JR_SV3TOV2_Sub038] (puzzle: Sensor v3, turn-off variant 2)”, the “apparent KD of MS2 coat protein” value is, setting by setting: under setting [1], 0.0357 µM; under setting [2], 0.109 µM; under setting [3], 0.0324 µM.

Consider “UAGUGUUACACAGGAUAUCGCCUCUUAUUACAUGAGGAUCACCCAUGUUUAGUUAGUUACAUGUACGAGAAGGGUGUUGUAGUU [JR_ExcNG2_Sub039] (Eterna round: R96, puzzle: Exclusion NG 2)”, for which the “apparent KD of MS2 coat protein” value is 0.787 µM (input ligand: FMN 200 uM), 0.681 µM under setting [4] and 1.01 µM (input ligand: none).

As for “UAUAAGGUAGGAUAUACGAAUAAAUAGGGUAGAAUAAUAACACAUGAGGAUCACCCAUGUAGAAGGACCAAGAU [Mat - Exclusion 2 - Mod of my Tesla design - D29] (puzzle: Exclusion 2)”, the “apparent KD of MS2 coat protein” value under setting [1] is 0.0445 µM, the “apparent KD of MS2 coat protein” value under setting [2] is 0.0205 µM and the “apparent KD of MS2 coat protein” value under setting [3] stood at 0.0248 µM.

As for “UAUACCACAGUUAGGAUAUUCUAAGUAGUAGCUAAGAAGAAGGAACAUGAGGAUCACCCAUGUGGAGCCAGCGU [Eternabot (L1) Solution 99] (Eterna round: R97, puzzle: Brourd's mod of Exclusion 4)”, the “apparent KD of MS2 coat protein” value stood at 0.0453 µM (input ligand: FMN 200 uM) and 0.0181 µM (input ligand: none).

With “UAUAUAUAGUAAGGAUAUGUAAUUAUCUUAUAAACAGAAGGUACUGACAUGAGGAUCACCCAUGUUUUAGUGUGGGCAUGUAGA [JMF's solution 39] (Eterna round: R96, puzzle: Exclusion NG 1)”, under setting [4], the “apparent KD of MS2 coat protein” value turned out to be 0.0498 µM.

With “UAUCCUCAAGUGAGGAUAUGACGGUCAAGACGCGUUCAGAAGGCACAUGAGGAUCACCCAUGUGAUAAAGGAAU [Eternabot (L2) Solution 38] (Eterna round: R97, puzzle: Brourd's mod of Exclusion 4)”, the “apparent KD of MS2 coat protein” value runs as follows: (input ligand: FMN 200 uM) 0.0917 µM; (input ligand: none) 0.0206 µM.

With “UAUCGGGACUGAGGAUAUUCGUUCGAACACGAAGAAGAAGGUAGUGUCAGGGACAUGAGGAUCACCCAUGUGAUUUCAGUCCUA [JL ViennaUCT Erinle mod 3] (Eterna round: R96, puzzle: Exclusion NG 1)”, the “apparent KD of MS2 coat protein” value (input ligand: FMN 200 uM) worked out at 0.149 µM, the “apparent KD of MS2 coat protein” value under setting [4] was 0.102 µM and the “apparent KD of MS2 coat protein” value (input ligand: none) stood at 0.165 µM.

As to “UAUCUUCAUAUCACAUGAGGAUCACCCAUGUUAUUCAUCUCGUAGGAUAUCGAGGUUUUUUUUUUCGAGAAGGACGUAUUGUUU [JR_ExcNG3_Sub078] (Eterna round: R96, puzzle: Exclusion NG 3)”, the “apparent KD of MS2 coat protein” value is, setting by setting: (input ligand: FMN 200 uM) 0.183 µM; under setting [4], 0.159 µM; (input ligand: none) 0.18 µM.

With “UAUGAGCUAGGAUAUGCUUUGGGCUCGCUUUCCUUCGAUAAACUUGAGGAUCACCCAAGUAGAAGGAGCUUGUA [Mod 32 - Jieux - Exclusion 2] (Eterna round: R97, puzzle: Exclusion 2)”, the “apparent KD of MS2 coat protein” value (input ligand: FMN 200 uM) stood at 0.0365 µM and the “apparent KD of MS2 coat protein” value (input ligand: none) is 0.0158 µM.

With “UAUGAUGCAGGAUAUACAUGAGGAUCACCCAUGUCUCCAAGGGAUAAAGCCAGGCGCUGUAGAAGGGCGACGAC [Eternabot (L1) Solution 28] (Eterna round: R97, puzzle: Exclusion 3)”, the “apparent KD of MS2 coat protein” value runs as follows: (input ligand: FMN 200 uM) 0.0269 µM; (input ligand: none) 0.0274 µM.

Regarding “UAUGGUCUUGAGGAUAUACCAGGGUGAGUCCAGGUAGAAGGUAGGACAUGAGGAUCACCCAUGUGACGUAGUGU [Eternabot (L2) Solution 49] (Eterna round: R97, puzzle: Exclusion 6)”, the “apparent KD of MS2 coat protein” value (input ligand: FMN 200 uM) was 0.434 µM and the “apparent KD of MS2 coat protein” value (input ligand: none) turned out to be 0.354 µM.

For “UAUGGUUAAGUCAGGAUAUACAUACAGAUAUCUGAGUAGAAGGGACAUGAGGAUCACCCAUGUAUGGUAGUGUU [Ex4 #54] (Eterna round: R97, puzzle: Brourd's mod of Exclusion 4)”, the “apparent KD of MS2 coat protein” value runs as follows: (input ligand: FMN 200 uM) 0.169 µM; (input ligand: none) 0.0763 µM.

For “UAUUAACAGGCAAGAUCCCACAUGAGGAUCACCCAUGUGCUCGUCUUAUAAGGUACUGUGACGAAAGUCACGGUACC [Sensor 3, v1 - 82] (puzzle: Sensor v3, turn-off variant 1)”, the “apparent KD of MS2 coat protein” value runs as follows: under setting [1], 0.0232 µM; under setting [2], 0.589 µM; under setting [3], 0.0294 µM.

For “UAUUACAAGCGAGAUCCUAACAUGAGGAUCACCCAUGUGCUCGUCUCAUUUUGGACUAUCACGAAAGUGAUAGUCCU [Level Boss var2-02] (puzzle: Sensor v3, turn-off variant 1)”, the “apparent KD of MS2 coat protein” value reads like this: under setting [1], 0.0199 µM; under setting [2], 0.237 µM; under setting [3], 0.0172 µM.

In the case of “UAUUAGCAAGCAAAUGGGUACAUGAGGAUCACCCAUGUGCUCGUCUUAUAAGGUACUGUGACGAAAGUCCCGGUACC [mod--Eli6] (Eterna round: R97, puzzle: Sensor, turn-off variant 1)”, the “apparent KD of MS2 coat protein” value stood at 0.0289 µM (input ligand: FMN 200 uM) and 0.0219 µM (input ligand: none).

On to “UAUUAGCAAGCAAGAUCCUACAUGAGGAUCACCCAUGUGCUCGUCUUAAGCUCAGAAUUACUGAGCGCUCGUCUUAU [Winner reversed engineered 23] (Eterna round: R97, puzzle: Sensor, turn-off variant 1)”, for which the “apparent KD of MS2 coat protein” value is 0.468 µM (input ligand: FMN 200 uM) and 0.645 µM (input ligand: none).

For “UAUUAGCAAGCCAAUGGGUACAUGAGGAUCACCCAUGUGCUCGUCUUAUAAGGUACUGUGACGAAAGUCACGGUACC [mod--Eli10] (Eterna round: R97, puzzle: Sensor, turn-off variant 1)”, the “apparent KD of MS2 coat protein” value runs as follows: (input ligand: FMN 200 uM) 0.0167 µM; (input ligand: none) 0.0177 µM.

For the sequence “UAUUAGCAAGCGAGAUCCCACAUGAGGAUCACCCAUGUGCUCGUCUUAUAUAAGGUACUGUACGAAAGUACGGUACC [Sensor 3, v1 - 91 v6] (Eterna round: R97, puzzle: Sensor, turn-off variant 1)”, the “apparent KD of MS2 coat protein” value (input ligand: FMN 200 uM) worked out at 0.0166 µM and the “apparent KD of MS2 coat protein” value (input ligand: none) was found to be 0.0162 µM.

In the case of “UAUUAGCAAGCGAGAUCUCACAUGAGGAUCACCCAUGUGCUCGUCUUAUAAGGUACUGUGACGAGAGUCACGGUACC [Mat - Sensor, turn-off var - Eli Mod - D37] (Eterna round: R97, puzzle: Sensor, turn-off variant 1)”, the “apparent KD of MS2 coat protein” value by setting is: (input ligand: FMN 200 uM) 0.013 µM; (input ligand: none) 0.0141 µM.

Consider “UAUUAGCAAGUAAGAUCCCACAUGAGGAUCACCCAUGUGCUCGUCAUAUCAGGUACGGAGCGGAAACUCACGGUACG [Sensor-V1 #87] (Eterna round: R97, puzzle: Sensor, turn-off variant 1)”, for which the “apparent KD of MS2 coat protein” value came to 0.209 µM (input ligand: FMN 200 uM) and 0.351 µM (input ligand: none).

Take “UAUUAGCAAGUGAGAUCCCACAUGAGGAUCACCCAUGUGCUCGUCUUAUAAGGUACUGUGACGAUAGUCACGGUACC [Mat - Sensor, turn-off var - Eli Mod - D1] (Eterna round: R97, puzzle: Sensor, turn-off variant 1)”: the “apparent KD of MS2 coat protein” value (input ligand: FMN 200 uM) amounted to 0.0499 µM and the “apparent KD of MS2 coat protein” value (input ligand: none) amounted to 0.049 µM.

Consider “UAUUAGCAAGUGAGGUCCCACAUGAGGAUCACCCAUGUGCUCGUCUUAUAAGGUACUGUGACGAGAGUCACGGUACC [Mat - Sensor, turn-off var - Eli Mod - D52] (Eterna round: R97, puzzle: Sensor, turn-off variant 1)”, for which the “apparent KD of MS2 coat protein” value was found to be 0.0402 µM (input ligand: FMN 200 uM) and 0.0445 µM (input ligand: none).

For the sequence “UAUUAUCAAGCAAGAUCCCACAUGAGGAUCACCCAUGUGCUCGUCUUAUUUCCGGAAUUAUUGGGCUCUCGUCUAAU [JR_STOV1_Sub093] (Eterna round: R97, puzzle: Sensor, turn-off variant 1)”, the “apparent KD of MS2 coat protein” value (input ligand: FMN 200 uM) turned out to be 0.0901 µM and the “apparent KD of MS2 coat protein” value (input ligand: none) came out at 0.0782 µM.

On to “UAUUAUCAAGCAAGAUCCCACAUGAGGAUCACCCAUGUGCUCGUCUUAUUUCUGUCCUUAUUGUUCUCUCGUCUAAU [JR_STOV1_v2_Sub096] (Eterna round: R97, puzzle: Sensor, turn-off variant 1)”, for which the “apparent KD of MS2 coat protein” value reads like this: (input ligand: FMN 200 uM) 0.0418 µM; (input ligand: none) 0.0399 µM.

As to “UAUUAUCAAGCUAGAUCCCACAUGAGGAUCACCCAUGUGCUCGUCUUAUUUCCGGAAUUAUUGGGCUCUCGUCUUUU [JR_STOV1_Sub092] (Eterna round: R97, puzzle: Sensor, turn-off variant 1)”, the “apparent KD of MS2 coat protein” value (input ligand: FMN 200 uM) was found to be 0.235 µM and the “apparent KD of MS2 coat protein” value (input ligand: none) came out at 0.238 µM.

“UAUUGGCUAGGAUAUCCGGCUGGCGACAUGAGGAUCACCCAUGUGGACUCUGGUUGUCUUGGAGAAGGAGCAUGCG [EX5 B.19] (Eterna round: R97, puzzle: Exclusion 5)”: the “apparent KD of MS2 coat protein” value (input ligand: FMN 200 uM) worked out at 0.206 µM and the “apparent KD of MS2 coat protein” value (input ligand: none) stood at 0.138 µM.

For the sequence “UAUUUACAUGAGGAUCACCCAUGUCAGGAUAUGCGUCUAUCGUCGAAAGACGAUAGUCGCAGAAGGGACAAUAU [LRO-Excl01-22 mod derived from EliFisker 4.24] (Eterna round: R97, puzzle: Exclusion 1)”, the “apparent KD of MS2 coat protein” value reads like this: (input ligand: FMN 200 uM) 0.1 µM; (input ligand: none) 0.0489 µM.

As for “UAUUUACAUGAGGAUCACCCAUGUCAGGAUAUGUUUCUAUCGUCGAAAGACGAUAGUUGCAGAAGGGACAAUAU [LRO-Excl01-25 mod derived from EliFisker 4.24] (Eterna round: R97, puzzle: Exclusion 1)”, the “apparent KD of MS2 coat protein” value reads like this: (input ligand: FMN 200 uM) 0.0941 µM; (input ligand: none) 0.0485 µM.
